Results: patent US20070219129A1, “hsp90 decoy peptides and uses thereof” (priority 2005, published 2007)
“Also recorded” adds a separate entry of the source. Ends that are not written are not given here.

Tests used:
murine facialis arteries = test: ACh-induced vasodilation of isolated, pressurized facialis arteries after acute peptide exposure; set-up: species or system C57BL/6 mice; settings: 10 μg/mL, 10 min pre-treatment, vs vehicle control
Excerpt: The B2 peptide was also shortened to 15 aa (AELVLEVPLEHPTLE) with the TAT PTD (RKKRRQRRR) added at the N-terminal as described by Pagano and associates.^6 (Note that the initial A residue is a linker.) This redesign made a new decoy peptide (RKKRRQRRR-AELVLEVPLEHPTLE), which we called TSB2. In designing a control peptide, TSB(Ctr) (RKKRRQRRR-AALVLAVPLAHPRLA), we reasoned that if E were important for binding, then replacing E with A would result in a peptide that would fail to bind to hsp90 or another heatshock protein essential to chaperone-dependent signaling and possibly mitochondrial function and therefore fail to impair vasodilation. To test these ideas, TSB2 and TSB(Ctr) (10 μg/mL) were incubated with separatefacialis arteries from healthy C57BL/6 male mice, whose vasodilation is mediated 100% by eNOS.^9 Ten minutes later, excess peptides were removed by changing the buffer and ACh-dose response curves of the preconstricted and pressurized vessels determined as before.^9

B16 melanoma cells = test: Viability of B16 melanoma cells in culture (LDH release); format: cell-based; settings: even at 100 μg/mL
[1] = target: T1, heat shock protein 90 (hsp90), endogenous in bovine aortic endothelial cells (BAEC) (bovine, UniProt A0AAA9SQM8); test: peptide at 10 ug/mL in BAEC lysate, eNOS immunoprecipitation, western blot for hsp90
[2] = target: T1, heat shock protein 90 (hsp90), …; test: eNOS immunoprecipitation from treated BAEC cultures, western blot for hsp90 (FIG. 2)

Row | Molecule | percent decrease of hsp90 association with eNOS [1] | other results
1 | RKKRRQRRR-AALVLAVPLAHPRLA [TSB(Ctr)] |  | effect on ACh-induced vasodilation (in words) (murine facialis arteries): no effect
2 | RKKRRQRRRAELVLEVPLEHPTLE [TSB2, RKKRRQRRR-AELVLEVPLEHPTLE] |  | viability of B16 melanoma cells (LDH release) (B16 melanoma cells): no significant effects; also recorded: no direct effect
3 | LPLLLQAPDEAPELFVLPPE [B1 (291-311)] | ~80% | 
4 | LVLEVPLEHPTLEWFAALGL [B3 (311-330)] | ~80% | 
5 | APELFVLPPELVLEVPLEHP [B2 (301-320)] | ~80% | 
6 | RKKRRQRRRAELVLEVPLEHPTLE [TSB2] |  | hsp90 association with eNOS relative to PEP1-treated or untreated cultures [2]: 0.25 fraction of control level
